In IntAct's records for PubMed 22314232:

B1: Calnexin (Homo sapiens), P27824 (parent)
chain: MEGKWLLCMLLVLGTAIVEAHDGHDDDVIDIEDDLDDVIEEVEDSKPDTTAPPSSPKVTYKAPVPTGEVYFADSFDRGTLSGWILSKAKKDDTDDEIAKYDGKWEVEEMKESKLPGDKGLVLMSRAKHHAISAKLNKPFLFDTKPLIVQYEVNFQNGIECGGAYVKLLSKTPELNLDQFHDKTPYTIMFGPDKCGEDYKLHFIFRHKNPKTGIYEEKHAKRPDADLKTYFTDKKTHLYTLILNPDNSFEILVDQSVVNSGNLLNDMTPPVNPSREIEDPEDRKPEDWDERPKIPDPEAVKPDDWDEDAPAKIPDEEATKPEGWLDDEPEYVPDPDAEKPEDWDEDMDGEWEAPQIANPRCESAPGCGVWQRPVIDNPNYKGKWKPPMIDNPSYQGIWKPRKIPNPDFFEDLEPFRMTPFSAIGLELWSMTSDIFFDNFIICADRRIVDDWANDGWGLKKAADGAAEPGVVGQMIEAAEERPWLWVVYILTVALPVFLVILFCCSGKKQTSGMEYKKTDAPQPDVKEEEEEKEEEKDKGDEEEEGEEKLEEKQKSDAEEDGGTVSQEEEDRKPKAEEDEILNRSPRNRKPRRE

Variants of: B1
Settings: with SEC61A1, P61619

| effect of a mutation on the interaction | Variant |
| --- | --- |
| disrupting interaction | P494L |

Variants of: B1
Settings: with rl12_human RPL12, P30050

| effect of a mutation on the interaction | Variant |
| --- | --- |
| disrupting interaction | P494L |
